For orientation: Kd means the free concentration of one partner at which half of the binding sites on the other are occupied at equilibrium, for simple one-to-one binding.

The values that follow come from paper PMC9352680, “A comprehensive thermodynamic model for RNA binding by the Saccharomyces cerevisiae Pumilio protein PUF4”.

The target of the series is T1, PUF4 RNA-binding domain (Saccharomyces cerevisiae, UniProt P25339 537-888).
T1 sequence: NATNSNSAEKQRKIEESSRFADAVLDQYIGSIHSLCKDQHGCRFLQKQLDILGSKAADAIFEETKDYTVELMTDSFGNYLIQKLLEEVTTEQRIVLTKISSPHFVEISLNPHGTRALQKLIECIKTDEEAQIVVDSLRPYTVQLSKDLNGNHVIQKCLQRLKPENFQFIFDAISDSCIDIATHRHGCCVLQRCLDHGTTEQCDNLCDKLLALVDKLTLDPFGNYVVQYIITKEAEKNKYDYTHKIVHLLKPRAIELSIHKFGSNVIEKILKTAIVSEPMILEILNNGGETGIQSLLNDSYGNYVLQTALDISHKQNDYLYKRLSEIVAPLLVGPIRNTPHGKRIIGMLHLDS
In words: Mg; RNA-MaP; 20 mM Na-HEPES pH 7.4, 30 mM KOAc, 0.75 mM MgCl2, 0.1% Tween-20, 5% glycerol, 0.1 mg/mL BSA, 2 mM DTT; 25 C; 0.0125-409.6 nM protein. The settings on record: tags: N-His6-TEV cleaved; C-SNAP kept, Cy3B-labelled; label: tethered on chip by stalled RNA polymerase.

Molecule ACAAACUAUUUUAUUAACAAAC (ssRNA) [Ib_S3_P5E.1_K5.1_C5.1_H5.1_[G2A]_[A4T]_A5.1_F5.1_T5.1] registered a dissociation constant (Kd) greater than 2300 nM.
ACAAACGGUCUUAUUAACAAAC (ssRNA) [Ib_S3_P5E.1_K5.1_C5.1_H5.1_[T1G]_[A4C]_A5.1_F5.1_T5.1] showed a Kd greater than 2300 nM.
In the case of ACAAACUGUCCUAUUAACAAAC (ssRNA) [Ib_S3_P5E.1_K5.1_C5.1_H5.1_[A4C]_A5.1_[T5C]_F5.1_T5.1] it was 545 nM; in that of ACAAACAGUAGAUUAACAAAC (ssRNA) [Ib_S3_P4E.1_K4.1_C4.1_H4.1_[T1A]_A4.1_[T5G]_F4.1_T4.1], 828 nM.
ACAAACAGGAUUAUUAACAAAC (ssRNA) [Ib_S3_P5E.1_K5.1_C5.1_H5.1_[T1A]_[T3G]_A5.1_F5.1_T5.1]: the dissociation constant Kd is greater than 2300 nM.
As to ACAAACUGGACUAUUAACAAAC (ssRNA) [Ib_S3_P5E.1_K5.1_C5.1_H5.1_[T3G]_A5.1_[T5C]_F5.1_T5.1], the Kd is greater than 2300 nM.
In the case of ACAAACUUUAAUAUUAACAAAC (ssRNA) [Ib_S3_P5E.1_K5.1_C5.1_H5.1_[G2T]_A5.1_[T5A]_F5.1_T5.1] it was greater than 2300 nM; in that of ACAAACUGCAUUUUAACAAAC (ssRNA) [Ib_S3_P4E.1_K4.1_C4.1_H4.1_[T3C]_A4.1_[A6T]_F4.1_T4.1], 1910 nM.
In the case of ACAAACAGUCUUAUUAACAAAC (ssRNA) [Ib_S3_P5E.1_K5.1_C5.1_H5.1_[T1A]_[A4C]_A5.1_F5.1_T5.1] it was greater than 2300 nM; in that of ACAAACUGUCUUCUUAACAAAC (ssRNA) [Ib_S3_P5E.1_K5.1_C5.1_H5.1_[A4C]_A5.1_[A7C]_F5.1_T5.1], 2190 nM; in that of ACAAACUGCAUUACUAACAAAC (ssRNA) [Ib_S3_P5E.1_K5.1_C5.1_H5.1_[T3C]_A5.1_F5.1_[T8C]_T5.1], greater than 2300 nM.
In the case of ACAAACUGGAUUAUGAACAAAC (ssRNA) [Ib_S3_P5E.1_K5.1_C5.1_H5.1_[T3G]_A5.1_F5.1_[T9G]_T5.1] it was greater than 2300 nM; in that of ACAAACUAUAUUAUUUACAAAC (ssRNA) [Ib_S3_P5E.1_K5.1_C5.1_H5.1_[G2A]_A5.1_F5.1_[A10T]_T5.1], 994 nM.
With ACAAACUGUCUUAUUUACAAAC (ssRNA) [Ib_S3_P5E.1_K5.1_C5.1_H5.1_[A4C]_A5.1_F5.1_[A10T]_T5.1], binding was put at a Kd of 641 nM.
ACAAACUAUAGUAUUAACAAAC (ssRNA) [Ib_S3_P5E.1_K5.1_C5.1_H5.1_[G2A]_A5.1_[T5G]_F5.1_T5.1]: the dissociation constant (Kd) was greater than 2300 nM.
As for ACAAACUGAAUACUAACAAAC (ssRNA) [Ib_S3_P4E.1_K4.1_C4.1_H4.1_[T3A]_A4.1_[T7C]_F4.1_T4.1], the Kd worked out at 1130 nM.
Consider ACAAACUGUCUUACUAACAAAC (ssRNA) [Ib_S3_P5E.1_K5.1_C5.1_H5.1_[A4C]_A5.1_F5.1_[T8C]_T5.1], for which the dissociation constant (Kd) was found to be 1030 nM.
In turn, ACAAACUCUAUAAUUAACAAAC (ssRNA) [Ib_S3_P5E.1_K5.1_C5.1_H5.1_[G2C]_A5.1_[T6A]_F5.1_T5.1] displayed a Kd greater than 2300 nM.
Take ACAAACUAAAUUAUUAACAAAC (ssRNA) [Ib_S3_P5E.1_K5.1_C5.1_H5.1_[G2A]_[T3A]_A5.1_F5.1_T5.1]: the Kd was greater than 2300 nM.
In the case of ACAAACCGUAUUUUUAACAAAC (ssRNA) [Ib_S3_P5E.1_K5.1_C5.1_H5.1_[T1C]_A5.1_[A7T]_F5.1_T5.1] it was greater than 2300 nM; in that of ACAAACCGUAUUUUAACAAAC (ssRNA) [Ib_S3_P4E.1_K4.1_C4.1_H4.1_[T1C]_A4.1_[A6T]_F4.1_T4.1], 1400 nM.
In the case of ACAAACAUUAUAUUAACAAAC (ssRNA) [Ib_S3_P4E.1_K4.1_C4.1_H4.1_[T1A]_[G2T]_A4.1_F4.1_T4.1] it was greater than 2300 nM.
In the case of ACAAACUAUAUAAUUAACAAAC (ssRNA) [Ib_S3_P5E.1_K5.1_C5.1_H5.1_[G2A]_A5.1_[T6A]_F5.1_T5.1] it was 1050 nM; in that of ACAAACUGGAUUAAUAACAAAC (ssRNA) [Ib_S3_P5E.1_K5.1_C5.1_H5.1_[T3G]_A5.1_F5.1_[T8A]_T5.1], greater than 2300 nM; in that of ACAAACUCUAUAGUAACAAAC (ssRNA) [Ib_S3_P4E.1_K4.1_C4.1_H4.1_[G2C]_A4.1_[T7G]_F4.1_T4.1], greater than 2300 nM.

B1: Ib_S4_P3E.1_K3.1_C3.1_H3.1_A3.1_F3.1_[T7G]_[A8C]_T3.1 (ssRNA)
RNA: UUUGACAACUGAUCGUUCUUUCUUGUAUAGCUUCUUUCUCGAUCAGUUGUCUUU
B1 showed an equilibrium dissociation constant (Kd) of 85.3 nM.
Take ACAAACUUUAUCAUUAACAAAC (ssRNA) [Ib_S3_P5E.1_K5.1_C5.1_H5.1_[G2T]_A5.1_[T6C]_F5.1_T5.1]: the Kd is greater than 2300 nM.
On to ACAAACUCCAUUAUUAACAAAC (ssRNA) [Ib_S3_P5E.1_K5.1_C5.1_H5.1_[G2C]_[T3C]_A5.1_F5.1_T5.1], for which the Kd was greater than 2300 nM.
In the case of ACAAACCCUAUUAUUAACAAAC (ssRNA) [Ib_S3_P5E.1_K5.1_C5.1_H5.1_[T1C]_[G2C]_A5.1_F5.1_T5.1] it was greater than 2300 nM; in that of ACAAACAGUAUCAUUAACAAAC (ssRNA) [Ib_S3_P5E.1_K5.1_C5.1_H5.1_[T1A]_A5.1_[T6C]_F5.1_T5.1], greater than 2300 nM.
In the case of ACAAACUGACUUAUUAACAAAC (ssRNA) [Ib_S3_P5E.1_K5.1_C5.1_H5.1_[T3A]_[A4C]_A5.1_F5.1_T5.1] it was greater than 2300 nM.
In the case of ACAAACAGUAUCUUAACAAAC (ssRNA) [Ib_S3_P4E.1_K4.1_C4.1_H4.1_[T1A]_A4.1_[A6C]_F4.1_T4.1] it was greater than 2300 nM.
On to ACAAACCUUAUUAUUAACAAAC (ssRNA) [Ib_S3_P5E.1_K5.1_C5.1_H5.1_[T1C]_[G2T]_A5.1_F5.1_T5.1], for which the dissociation constant (Kd) is greater than 2300 nM.
In the case of ACAAACUCCAUAUUAACAAAC (ssRNA) [Ib_S3_P4E.1_K4.1_C4.1_H4.1_[G2C]_[T3C]_A4.1_F4.1_T4.1] it was greater than 2300 nM; in that of ACAAACUGCAUAAUAACAAAC (ssRNA) [Ib_S3_P4E.1_K4.1_C4.1_H4.1_[T3C]_A4.1_[T7A]_F4.1_T4.1], 1450 nM.

B2: Ia_S2_P5E.1_K5.1_C5.1_H5.1_A5.1_[T5A]_F5.1_T5.1 (ssRNA)
RNA: UUUGAUUAAUAUGAUAUCGUUCUUUCUUGUAAUAUUAUUCUUUCUCGAUAUCAUAUUAAUCUUU
B2 returned a Kd of 4.27 nM.

B3: Ia_S2_P5E.1_K5.1_C5.1_H5.1_A5.1_[A7C]_F5.1_T5.1 (ssRNA)
RNA: UUUGAUUAAUAUGAUAUCGUUCUUUCUUGUAUUCUUAUUCUUUCUCGAUAUCAUAUUAAUCUUU
With B3, the Kd was 3.06 nM.

B4: Ia_S2_P5E.1_K5.1_C5.1_H5.1_A5.1_[T6C]_F5.1_T5.1 (ssRNA)
RNA: UUUGAUUAAUAUGAUAUCGUUCUUUCUUGUAUCAUUAUUCUUUCUCGAUAUCAUAUUAAUCUUU
B4: the equilibrium dissociation constant (Kd) turned out to be 1.73 nM.

B5: Ia_S2_P5E.1_K5.1_C5.1_H5.1_A5.1_[T6A]_F5.1_T5.1 (ssRNA)
RNA: UUUGAUUAAUAUGAUAUCGUUCUUUCUUGUAUAAUUAUUCUUUCUCGAUAUCAUAUUAAUCUUU
In turn, B5 came in with a Kd of 2.33 nM.

B6: Ia_S2_P5E.1_K5.1_C5.1_H5.1_A5.1_[A7G]_F5.1_T5.1 (ssRNA)
RNA: UUUGAUUAAUAUGAUAUCGUUCUUUCUUGUAUUGUUAUUCUUUCUCGAUAUCAUAUUAAUCUUU
Turning to B6, binding was put at a Kd of 11.6 nM.
Molecule ACAAACCGUAUUAUUCACAAAC (ssRNA) [Ib_S3_P5E.1_K5.1_C5.1_H5.1_[T1C]_A5.1_F5.1_[A10C]_T5.1] gave a Kd greater than 2300 nM.
The molecule ACAAACAGUAAAUUAACAAAC (ssRNA) [Ib_S3_P4E.1_K4.1_C4.1_H4.1_[T1A]_A4.1_[T5A]_F4.1_T4.1] gave a dissociation constant (Kd) of 596 nM.
In the case of ACAAACUGAACUAUUAACAAAC (ssRNA) [Ib_S3_P5E.1_K5.1_C5.1_H5.1_[T3A]_A5.1_[T5C]_F5.1_T5.1] it was greater than 2300 nM; in that of UCUCUUUGUAUACAUCUCUU (ssRNA) [Ia_S1_P3E.1_K3.1_C3.1_H3.1_A3.1_F3.1_[T7C]_T3.1], 44.6 nM.
In the case of ACAAACUAUAUUAAUAACAAAC (ssRNA) [Ib_S3_P5E.1_K5.1_C5.1_H5.1_[G2A]_A5.1_F5.1_[T8A]_T5.1] it was 1580 nM; in that of ACAAACCGUAUAAUUAACAAAC (ssRNA) [Ib_S3_P5E.1_K5.1_C5.1_H5.1_[T1C]_A5.1_[T6A]_F5.1_T5.1], 1180 nM; in that of ACAAACUGGAUUACUAACAAAC (ssRNA) [Ib_S3_P5E.1_K5.1_C5.1_H5.1_[T3G]_A5.1_F5.1_[T8C]_T5.1], greater than 2300 nM.
In the case of ACAAACUUUAUUAUUUACAAAC (ssRNA) [Ib_S3_P5E.1_K5.1_C5.1_H5.1_[G2T]_A5.1_F5.1_[A10T]_T5.1] it was greater than 2300 nM.
For the molecule ACAAACAGUAUUUUUAACAAAC (ssRNA) [Ib_S3_P5E.1_K5.1_C5.1_H5.1_[T1A]_A5.1_[A7T]_F5.1_T5.1], the Kd was greater than 2300 nM.
In the case of ACAAACGGUAUUUUUAACAAAC (ssRNA) [Ib_S3_P5E.1_K5.1_C5.1_H5.1_[T1G]_A5.1_[A7T]_F5.1_T5.1] it was 1600 nM; in that of ACAAACGGUAUCAUUAACAAAC (ssRNA) [Ib_S3_P5E.1_K5.1_C5.1_H5.1_[T1G]_A5.1_[T6C]_F5.1_T5.1], 1450 nM; in that of ACAAACUGAAUUAUAAACAAAC (ssRNA) [Ib_S3_P5E.1_K5.1_C5.1_H5.1_[T3A]_A5.1_F5.1_[T9A]_T5.1], greater than 2300 nM.
In the case of ACAAACAGUAUAAUUAACAAAC (ssRNA) [Ib_S3_P5E.1_K5.1_C5.1_H5.1_[T1A]_A5.1_[T6A]_F5.1_T5.1] it was 1740 nM.
The molecule ACAAACCGUAGAUUAACAAAC (ssRNA) [Ib_S3_P4E.1_K4.1_C4.1_H4.1_[T1C]_A4.1_[T5G]_F4.1_T4.1] registered an equilibrium dissociation constant (Kd) of 455 nM.
ACAAACUGAAUAAUAACAAAC (ssRNA) [Ib_S3_P4E.1_K4.1_C4.1_H4.1_[T3A]_A4.1_[T7A]_F4.1_T4.1] showed a Kd greater than 2300 nM.
In turn, UCUCUUUAUAUAUAUCUCUU (ssRNA) [Ia_S1_P3E.1_K3.1_C3.1_H3.1_[G2A]_A3.1_F3.1_T3.1] returned a Kd of 637 nM.
For the molecule ACAAACUAUUUAUUAACAAAC (ssRNA) [Ib_S3_P4E.1_K4.1_C4.1_H4.1_[G2A]_[A4T]_A4.1_F4.1_T4.1], the Kd is greater than 2300 nM.
